Test results from the supplement of paper PMC10567573.

B1: ALDH8A1 (parent)
chain: WSSRSPQERSRVLNQVADLLEQSL

Variants of: B1
Assay: protein stability index of a GFP-peptide fusion (GPS, HEK-293T) (PSI 1-6); higher = more stable
Conditions: c terminus: a fixed tail appended
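Further: lentivirally expressed fusions sorted by FACS into six bins by GFP to DsRed ratio, PSI derived from sequencing read proportions per bin multiplied by bin number.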

| Variant | protein stability index |
| --- | --- |
| WSSRSPQERSRVCNQVADLLEQSL | 3.11 |
| WSSRSPQERSRVHNQVADLLEQSL | 2.73 |
| WSSRSPQERSRVGNQVADLLEQSL | 3.46 |
| WSSRSPQERSRVVNQVADLLEQSL | 3.13 |
| WSSRSPQERSRVINQVADLLEQSL | 3.06 |
| WSSRSPQERSRVYNQVADLLEQSL | 2.6 |
| WSSRSPQERSRVENQVADLLEQSL | 3.49 |
| WSSRSPQERSRVSNQVADLLEQSL | 3.49 |
| WSSRSPQERSRVDNQVADLLEQSL | 3.81 |
| WSSRSPQERSRVWNQVADLLEQSL | 2.55 |
| WSSRSPQERSRVANQVADLLEQSL | 2.59 |
| WSSRSPQERSRVRNQVADLLEQSL | 3.03 |
| WSSRSPQERSRVTNQVADLLEQSL | 3.5 |
| WSSRSPQERSRVPNQVADLLEQSL | 4.09 |
| WSSRSPQERSRVMNQVADLLEQSL | 2.63 |
| WSSRSPQERSRVNNQVADLLEQSL | 3.54 |
| WSSRSPQERSRVFNQVADLLEQSL | 2.4 |
| WSSRSPQERSRVQNQVADLLEQSL | 3.85 |
| WSSRSPQERSRVKNQVADLLEQSL | 3.53 |
| WSSRSPQERSRVLNQVAFLLEQSL | 1.48 |
| WSSRSPQERSRVLNQVATLLEQSL | 2.02 |
| WSSRSPQERSRVLNQVAMLLEQSL | 2.17 |
| WSSRSPQERSRVLNQVAILLEQSL | 1.76 |
| WSSRSPQERSRVLNQVARLLEQSL | 2.34 |

| Variant | protein stability index |
| --- | --- |
| WSSRSPQERSRVLNQVAVLLEQSL | 1.92 |
| WSSRSPQERSRVLNQVAQLLEQSL | 1.59 |
| WSSRSPQERSRVLNQVANLLEQSL | 2.22 |
| WSSRSPQERSRVLNQVAPLLEQSL | 3.02 |
| WSSRSPQERSRVLNQVAHLLEQSL | 2.2 |
| WSSRSPQERSRVLNQVAWLLEQSL | 1.37 |
| WSSRSPQERSRVLNQVALLLEQSL | 1.86 |
| WSSRSPQERSRVLNQVASLLEQSL | 2.23 |
| WSSRSPQERSRVLNQVAKLLEQSL | 1.47 |
| WSSRSPQERSRVLNQVACLLEQSL | 2.03 |
| WSSRSPQERSRVLNQVAYLLEQSL | 1.81 |
| WSSRSPQERSRVLNQVAALLEQSL | 1.98 |
| WSSRSPQERSRVLNQVAGLLEQSL | 2.76 |
| WSSRSPQERSRVLNQRADLLEQSL | 3.9 |
| WSSRSPQERSRVLNQKADLLEQSL | 3.71 |
| WSSRSPQERSRVLNQIADLLEQSL | 2 |
| WSSRSPQERSRVLNQMADLLEQSL | 2.7 |
| WSSRSPQERSRVLNQPADLLEQSL | 3.62 |
| WSSRSPQERSRVLNQTADLLEQSL | 4.18 |
| WSSRSPQERSRVLNQQADLLEQSL | 4.62 |
| WSSRSPQERSRVLNQDADLLEQSL | 4.34 |
| WSSRSPQERSRVLNQLADLLEQSL | 2.24 |
| WSSRSPQERSRVLNQAADLLEQSL | 3.86 |
| WSSRSPQERSRVLNQYADLLEQSL | 2.29 |

| Variant | protein stability index |
| --- | --- |
| WSSRSPQERSRVLNQSADLLEQSL | 3.99 |
| WSSRSPQERSRVLNQWADLLEQSL | 2.26 |
| WSSRSPQERSRVLNQEADLLEQSL | 4.6 |
| WSSRSPQERSRVLNQCADLLEQSL | 2.98 |
| WSSRSPQERSRVLNQNADLLEQSL | 4.2 |
| WSSRSPQERSRVLNQHADLLEQSL | 3.55 |
| WSSRSPQERSRVLNQFADLLEQSL | 1.92 |
| WSSRSPQERSRVLNQGADLLEQSL | 4.12 |
| WSSRSPQERSRVLNQVADLLEMSL | 1.83 |
| WSSRSPQERSRVLNQVADLLEDSL | 3.63 |
| WSSRSPQERSRVLNQVADLLEFSL | 1.93 |
| WSSRSPQERSRVLNQVADLLEASL | 2.22 |
| WSSRSPQERSRVLNQVADLLEESL | 2.88 |
| WSSRSPQERSRVLNQVADLLEHSL | 3.34 |
| WSSRSPQERSRVLNQVADLLECSL | 1.68 |
| WSSRSPQERSRVLNQVADLLEPSL | 3.31 |
| WSSRSPQERSRVLNQVADLLERSL | 2.72 |
| WSSRSPQERSRVLNQVADLLELSL | 1.65 |
| WSSRSPQERSRVLNQVADLLEKSL | 2.27 |
| WSSRSPQERSRVLNQVADLLENSL | 2.61 |
| WSSRSPQERSRVLNQVADLLEGSL | 2.98 |
| WSSRSPQERSRVLNQVADLLEISL | 2.01 |
| WSSRSPQERSRVLRQVADLLEQSL | 3.47 |
| WSSRSPQERSRVLTQVADLLEQSL | 2.82 |

| Variant | protein stability index |
| --- | --- |
| WSSRSPQERSRVLLQVADLLEQSL | 1.62 |
| WSSRSPQERSRVLDQVADLLEQSL | 2.28 |
| WSSRSPQERSRVLPQVADLLEQSL | 3.21 |
| WSSRSPQERSRVLVQVADLLEQSL | 2.1 |
| WSSRSPQERSRVLHQVADLLEQSL | 2.17 |
| WSSRSPQERSRVLYQVADLLEQSL | 4.15 |
| WSSRSPQERSRVLGQVADLLEQSL | 2.38 |
| WSSRSPQERSRVLMQVADLLEQSL | 1.79 |
| WSSRSPQERSRVLKQVADLLEQSL | 1.97 |
| WSSRSPQERSRVLEQVADLLEQSL | 3.24 |
| WSSRSPQERSRVLCQVADLLEQSL | 2.21 |
| WSSRSPQERSRVLWQVADLLEQSL | 1.95 |
| WSSRSPQERSRVLQQVADLLEQSL | 2.41 |
| WSSRSPQERSRVLSQVADLLEQSL | 2.58 |
| WSSRSPQERSRVLIQVADLLEQSL | 2.02 |
| WSSRSPQERSRVLFQVADLLEQSL | 1.26 |
| WSSRSPQERSRVLAQVADLLEQSL | 2.56 |
| WSSRSPQERSRVLNQVPDLLEQSL | 3.53 |
| WSSRSPQERSRVLNQVQDLLEQSL | 2.5 |
| WSSRSPQERSRVLNQVKDLLEQSL | 3.17 |
| WSSRSPQERSRVLNQVSDLLEQSL | 3.02 |
| WSSRSPQERSRVLNQVCDLLEQSL | 2.34 |
